Results: paper PMC2111966

Target: Acanthamoeba actin (Acanthamoeba)
Experiment: co-sedimentation

percent of soluble G-actin converted into an insoluble form: > 95%
Substance: Acanthamoeba actin (natural protein)
